Data on 5 molecules can be found in patent US20250257126A1 (CAMBRIDGE ENTERPRISE, published 2025).

One test deals with T1, α-LGR5 epitope peptide (human).
T1 construct: Peptide added to scFv-α-LGR5 absorbed on Ni-NTA biosensors; also called the peptide
T1 peptide: SSPRSGVLLRGCPTHCHC
As to the kind of experiment: bio-layer interferometry (Octet), scFv absorbed to Ni-NTA biosensors, epitope peptide SEQ ID NO: 210 added; scFv fragment, not whole IgG. How it is done:
Binding affinities were determined by bio-layer interferometry measurements using the Octet platform.
Binding affinity was determined by biolayer interferometry on the Octet platform.

The target of test [1] is T2, RAD-displayed Fragment 1A of human LGR5 (human).
T2 construct: also called Frag1A
T2 sequence (O75473 22-37, looked up): GSSPRSGVLLRGCPTH
As to the kind of experiment: bio-layer interferometry (Octet), captured RAD-displayed fragment.

For test [2], the target named is T3, endogenous human LGR5 of cancer cell lines (human, UniProt O75473 22-907).
T3 sequence: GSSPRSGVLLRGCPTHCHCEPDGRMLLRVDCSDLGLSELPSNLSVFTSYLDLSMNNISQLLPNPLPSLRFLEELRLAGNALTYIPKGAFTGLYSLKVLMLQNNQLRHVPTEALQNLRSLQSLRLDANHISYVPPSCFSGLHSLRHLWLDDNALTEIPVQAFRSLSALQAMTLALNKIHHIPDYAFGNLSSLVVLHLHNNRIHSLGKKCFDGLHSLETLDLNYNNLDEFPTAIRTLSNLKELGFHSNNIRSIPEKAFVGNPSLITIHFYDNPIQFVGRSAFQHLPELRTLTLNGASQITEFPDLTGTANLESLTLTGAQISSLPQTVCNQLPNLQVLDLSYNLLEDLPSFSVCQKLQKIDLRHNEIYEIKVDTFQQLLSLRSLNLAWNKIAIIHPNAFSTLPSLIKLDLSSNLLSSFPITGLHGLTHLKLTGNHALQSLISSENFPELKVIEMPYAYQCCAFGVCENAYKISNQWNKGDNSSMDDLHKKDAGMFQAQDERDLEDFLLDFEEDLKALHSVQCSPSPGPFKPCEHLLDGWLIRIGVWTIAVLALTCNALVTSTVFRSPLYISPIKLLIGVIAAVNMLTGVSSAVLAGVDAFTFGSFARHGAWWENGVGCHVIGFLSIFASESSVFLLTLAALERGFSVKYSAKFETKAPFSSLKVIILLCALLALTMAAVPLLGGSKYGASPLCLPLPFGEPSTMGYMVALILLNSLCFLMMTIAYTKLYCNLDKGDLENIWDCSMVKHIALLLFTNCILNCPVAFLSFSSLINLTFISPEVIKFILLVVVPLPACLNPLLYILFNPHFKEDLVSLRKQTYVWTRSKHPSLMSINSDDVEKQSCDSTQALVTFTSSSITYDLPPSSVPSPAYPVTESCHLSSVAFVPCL
As to the kind of experiment: cell-based or functional assay.

In test [3] the target is T2, RAD-displayed Fragment 1A of human LGR5. As to the kind of experiment: bio-layer interferometry (Octet), captured RAD-displayed fragment, 10 µM Fragment 1 peptide included.
In a further test the target is T4, murine LGR6 transgene (mouse, UniProt Q3UVD5 23-967).
T4 construct: whole, on cells; also called mLGR6
T4 sequence (looked up): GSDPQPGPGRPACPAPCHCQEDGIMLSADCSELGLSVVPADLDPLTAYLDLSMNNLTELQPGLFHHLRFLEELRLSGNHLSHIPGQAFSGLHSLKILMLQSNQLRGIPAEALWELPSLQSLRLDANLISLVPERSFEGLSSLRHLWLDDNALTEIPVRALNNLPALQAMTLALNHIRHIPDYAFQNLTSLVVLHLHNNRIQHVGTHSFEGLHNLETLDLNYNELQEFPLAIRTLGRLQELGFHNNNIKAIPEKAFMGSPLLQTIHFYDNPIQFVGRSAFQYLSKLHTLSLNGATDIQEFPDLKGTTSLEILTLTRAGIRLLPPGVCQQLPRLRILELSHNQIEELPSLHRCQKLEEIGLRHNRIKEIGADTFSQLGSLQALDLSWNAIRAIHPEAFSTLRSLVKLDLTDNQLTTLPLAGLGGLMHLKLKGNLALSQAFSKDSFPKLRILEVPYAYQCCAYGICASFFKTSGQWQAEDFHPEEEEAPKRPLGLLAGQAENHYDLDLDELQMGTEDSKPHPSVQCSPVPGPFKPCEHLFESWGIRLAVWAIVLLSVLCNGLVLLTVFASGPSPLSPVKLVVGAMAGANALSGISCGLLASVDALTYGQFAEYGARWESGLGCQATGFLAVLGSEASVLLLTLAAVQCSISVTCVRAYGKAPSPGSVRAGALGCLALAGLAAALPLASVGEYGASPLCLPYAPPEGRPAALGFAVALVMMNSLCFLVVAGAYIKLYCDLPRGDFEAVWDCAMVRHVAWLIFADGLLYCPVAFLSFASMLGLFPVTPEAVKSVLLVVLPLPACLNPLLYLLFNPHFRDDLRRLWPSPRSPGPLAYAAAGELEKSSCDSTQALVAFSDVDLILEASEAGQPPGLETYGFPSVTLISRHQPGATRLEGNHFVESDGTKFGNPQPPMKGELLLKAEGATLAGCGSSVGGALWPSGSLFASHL
As to the kind of experiment: western blot of lysates of HEK293T cells expressing the LGR transgenes. In general terms: Immunoblotting shows a protein as a band on a membrane.

A further test concerns the target T5, human LGR6 transgene (human, UniProt Q9HBX8 25-967).
T5 construct: whole, on cells; Overexpressed in HEK293T cells with N-terminal HA tag, V2 receptor tail and eGFP; also tested as lysate; also called hLGR6; LGR6-eGFP
T5 sequence (looked up): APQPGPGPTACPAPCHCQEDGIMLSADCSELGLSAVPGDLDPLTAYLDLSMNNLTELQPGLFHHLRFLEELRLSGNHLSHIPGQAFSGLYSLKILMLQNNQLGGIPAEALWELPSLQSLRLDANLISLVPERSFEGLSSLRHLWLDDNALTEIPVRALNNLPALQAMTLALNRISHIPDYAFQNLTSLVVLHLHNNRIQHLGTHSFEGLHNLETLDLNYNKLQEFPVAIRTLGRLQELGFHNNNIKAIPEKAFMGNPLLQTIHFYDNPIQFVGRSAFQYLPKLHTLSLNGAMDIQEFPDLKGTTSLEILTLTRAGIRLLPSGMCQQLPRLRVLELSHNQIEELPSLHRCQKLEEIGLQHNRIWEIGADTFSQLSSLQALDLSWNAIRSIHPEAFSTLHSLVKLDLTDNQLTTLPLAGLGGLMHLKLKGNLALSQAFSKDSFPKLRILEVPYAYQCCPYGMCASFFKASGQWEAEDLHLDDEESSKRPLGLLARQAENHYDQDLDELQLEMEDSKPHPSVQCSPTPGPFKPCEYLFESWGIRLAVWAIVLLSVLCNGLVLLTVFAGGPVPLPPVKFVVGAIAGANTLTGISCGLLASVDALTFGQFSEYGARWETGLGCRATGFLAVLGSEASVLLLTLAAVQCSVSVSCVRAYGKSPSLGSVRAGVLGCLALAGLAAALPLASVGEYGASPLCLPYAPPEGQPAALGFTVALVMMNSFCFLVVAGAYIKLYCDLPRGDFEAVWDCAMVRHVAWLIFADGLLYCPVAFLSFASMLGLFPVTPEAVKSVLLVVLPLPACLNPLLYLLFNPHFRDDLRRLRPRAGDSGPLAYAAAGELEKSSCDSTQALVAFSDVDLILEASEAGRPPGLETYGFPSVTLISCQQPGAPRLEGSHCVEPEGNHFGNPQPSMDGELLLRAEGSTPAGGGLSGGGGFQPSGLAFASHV
As to the kind of experiment: immunofluorescence of HEK293T cells expressing LGR-eGFP transgenes, stained with fluorescent clone 2.

A further test concerns the target T6, murine LGR4 transgene (mouse, UniProt A2ARI4 25-951).
T6 construct: whole, on cells; Overexpressed in HEK293T cells with N-terminal HA tag, V2 receptor tail and eGFP; also tested as lysate; also called mLGR4
As to the kind of experiment: western blot of lysates of HEK293T cells expressing HA-tagged LGR-eGFP transgenes, probed with hybridoma clone 2.

The target in a further test is T7, murine LGR5 transgene (mouse, UniProt Q9Z1P4 22-907).
T7 construct: whole, on cells; Overexpressed in HEK293T cells with N-terminal HA tag, V2 receptor tail and eGFP; also tested as lysate; also called mLGR5; mLGR5-eGFP
T7 sequence (looked up): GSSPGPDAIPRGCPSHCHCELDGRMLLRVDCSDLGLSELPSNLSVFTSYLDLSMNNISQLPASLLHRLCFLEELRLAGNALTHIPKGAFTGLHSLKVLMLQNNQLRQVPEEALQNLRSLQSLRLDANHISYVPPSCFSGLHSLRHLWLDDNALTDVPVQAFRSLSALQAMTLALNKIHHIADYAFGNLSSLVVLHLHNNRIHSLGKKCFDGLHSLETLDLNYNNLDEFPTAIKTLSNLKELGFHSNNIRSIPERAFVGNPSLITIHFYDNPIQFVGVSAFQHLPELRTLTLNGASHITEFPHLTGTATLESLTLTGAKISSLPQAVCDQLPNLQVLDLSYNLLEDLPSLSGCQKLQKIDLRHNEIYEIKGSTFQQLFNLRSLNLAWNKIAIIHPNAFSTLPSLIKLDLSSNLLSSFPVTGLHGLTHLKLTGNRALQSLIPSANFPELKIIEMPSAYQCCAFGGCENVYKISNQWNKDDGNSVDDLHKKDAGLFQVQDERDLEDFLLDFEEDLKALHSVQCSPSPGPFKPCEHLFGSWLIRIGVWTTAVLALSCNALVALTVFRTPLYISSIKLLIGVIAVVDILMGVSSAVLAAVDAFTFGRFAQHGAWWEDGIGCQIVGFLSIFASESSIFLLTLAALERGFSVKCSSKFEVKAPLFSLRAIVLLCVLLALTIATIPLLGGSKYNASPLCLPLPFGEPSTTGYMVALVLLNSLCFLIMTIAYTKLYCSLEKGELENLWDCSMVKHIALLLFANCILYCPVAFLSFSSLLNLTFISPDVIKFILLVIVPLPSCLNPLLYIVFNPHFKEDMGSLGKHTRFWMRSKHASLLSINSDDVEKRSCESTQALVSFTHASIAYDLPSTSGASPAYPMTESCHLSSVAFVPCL
As to the kind of experiment: flow cytometry of live HEK293T cells expressing LGR-eGFP transgenes, Fl-α-LGR5 against eGFP. For orientation: Flow cytometry measures light scatter and fluorescence of single cells or particles in a stream.

A further test concerns the target T8, human LGR4 transgene (human, UniProt Q9BXB1 25-951).
T8 construct: whole, on cells; Overexpressed in HEK293T cells with N-terminal HA tag, V2 receptor tail and eGFP; also tested as lysate; also called hLGR4; LGR4-eGFP
The test is described as above.

B1: scFv-α-LGR5 (scFv)
scFv: EIVMTQSPATLSLSPGERATLSCRASQDISNRLNWYQQKPGQAVRLLISYRSRRHTGIPARFSGSGSGTDYTLTISSLEPEDFAVYYCQQGNSLPPTFGGGTKLEIKGGGGSGGGGSGGGGSGGGGSQVQLVQSGAEVKKPGASVKVSCKASGYTFTNYWMQWVRQAPGQGLEWIGEIDPSDSYTNYNQKFQGRVTLTVDTSTSTAYMELSSLRSEDTAVYYCARSLSGYVDYWGQGTTVTVSS
notes: Made from human variant 4 (clone 2.4), VL-linker-VH; The protein in the Octet assay was 6xHis-tagged; also called scFv fragment; svFv-α-LGR5
Regarding B1, the Kd (commonly the concentration at which binding is half-saturated) in the test with α-LGR5 epitope peptide is 0.77 nM. In other words, the sub-nanomolar range.

B2: α-LGR5 variant 4-ADC (antibody, human IgG1, kappa, V domains shown)
VH: QVQLVQSGAEVKKPGASVKVSCKASGYTFTNYWMQWVRQAPGQGLEWIGEIDPSDSYTNYNQKFQGRVTLTVDTSTSTAYMELSSLRSEDTAVYYCARSLSGYVDYWGQGTTVTVSS
VL: EIVMTQSPATLSLSPGERATLSCRASQDISNRLNWYQQKPGQAVRLLISYRSRRHTGIPARFSGSGSGTDYTLTISSLEPEDFAVYYCQQGNSLPPTFGGGTKLEIKR
modifications: MMAE coupled through a divinyl pyrimidine bridging linker inserted within the heavy chain-light chain disulphide linkages, drug-to-antibody ratio of 4
notes: ADC version of humanized variant 4 (clone 2.4); also called α-LGR5v4-ADC
As for B2, in [1], the Kd stood at 2 nM.

B3: α-LGR5 clone 2-ADC (antibody, mouse IgG2b, kappa, V domains shown)
VH: QVQLQQPGAELVKPGASVKLSCKASGYTFTNYWMQWVKQRPGQGLEWIGEIDPSDSYTNYNQKFKGKATLTVDTSSSTAYMQLSSLTSEDSAVYYCARSLSGYVDYWGQGTTLTVSS
VL: DIQMTQTTSSLSASLGDRVTISCRASQDISNRLNWYQQKPDGTVKLLISYRSRLHSGVPSRFSGSGSGTDYSLTISNLEQEDIATYFCQQGNSLPPTFGGGTKLEVRR
modifications: MMAE coupled through a divinyl pyrimidine bridging linker inserted within the heavy chain-light chain disulphide linkages, drug-to-antibody ratio of 4
notes: cleavable linker version; also called α-LGR5-ADC
For the molecule B3, in [2], the “EC50 of cell killing, LoVo cells” value stood at 9 nM; the “EC50 of cell killing, NALM6 cells, single dose, three days” value was 4 nM; the “EC50 of cell killing, REH cells” value was 10 nM; the “estimated EC50 for organoid cell apoptosis (cleaved caspase 3), CRC organoid line 1” value was ~5 nM. Further, the “estimated EC50 for organoid cell apoptosis (cleaved caspase 3), CRC organoid line 2” value in test [2] is ~100 nM. In test [1], this molecule registered a Kd of 2.7 nM.

B4: α-LGR5 clone 2 (antibody, mouse IgG2b, kappa, V domains shown)
VH: QVQLQQPGAELVKPGASVKLSCKASGYTFTNYWMQWVKQRPGQGLEWIGEIDPSDSYTNYNQKFKGKATLTVDTSSSTAYMQLSSLTSEDSAVYYCARSLSGYVDYWGQGTTLTVSS
VL: DIQMTQTTSSLSASLGDRVTISCRASQDISNRLNWYQQKPDGTVKLLISYRSRLHSGVPSRFSGSGSGTDYSLTISNLEQEDIATYFCQQGNSLPPTFGGGTKLEVRR
notes: Murine monoclonal antibody; In immunofluorescence and flow cytometry it carried a fluorophore (Alexa647 or DyLight 650) and is given as FI-α-LGR5 / FL-α-LGR5; also called a-LGR5; hybridoma clone 2
Molecule B4 gave a Kd in test [3] of 1.1 nM. For the same molecule, the binding result with murine LGR6 transgene, in the test with human LGR6 transgene, with murine LGR4 transgene, with murine LGR5 transgene and in the test with human LGR4 transgene was “no binding” throughout.

B5: α-LGR5 humanized (antibody, V domains shown)
VH: QVQLQQPGAELVKPGASVKLSCKASGYTFTNYWMQWVKQRPGQGLEWIGEIDPSDSYTNYNQKFKGKATLTVDTSSSTAYMQLSSLTSEDSAVYYCARSLSGYVDYWGQGTTLTVSS
VL: DIQMTQTTSSLSASLGDRVTISCRASQDISNRLNWYQQKPDGTVKLLISYRSRLHSGVPSRFSGSGSGTDYSLTISNLEQEDIATYFCQQGNSLPPTFGGGTKLEVR
notes: Direct transposition of the murine clone 2 variable domains into the human IgG scaffold; also called α-LGR5 humanised
In test [1], B5 had a Kd of 3.4 nM. That is a single-digit nanomolar value.
